The test deals with UPF1-Hel (human).

In turn, “full-length SLBP (SLBPfl) (from UniProt Q14493 1-270) (natural protein)” registered an extent of linear RNA substrate unwound by UPF1-Hel (fluorescence-based nucleic acid unwinding assay) with SLBPfl at equimolar amount to 3-fold molar excess; further decrease at 3-fold excess of 66%.
